T1: GST-CRN-3 (C. elegans, UniProt G5EBX6 1-876)
T1 construct: also called CRN-3 GST-fusion protein; not shown: glutathione S-transferase tag encoded by vector pGEX4T-2
T1 sequence: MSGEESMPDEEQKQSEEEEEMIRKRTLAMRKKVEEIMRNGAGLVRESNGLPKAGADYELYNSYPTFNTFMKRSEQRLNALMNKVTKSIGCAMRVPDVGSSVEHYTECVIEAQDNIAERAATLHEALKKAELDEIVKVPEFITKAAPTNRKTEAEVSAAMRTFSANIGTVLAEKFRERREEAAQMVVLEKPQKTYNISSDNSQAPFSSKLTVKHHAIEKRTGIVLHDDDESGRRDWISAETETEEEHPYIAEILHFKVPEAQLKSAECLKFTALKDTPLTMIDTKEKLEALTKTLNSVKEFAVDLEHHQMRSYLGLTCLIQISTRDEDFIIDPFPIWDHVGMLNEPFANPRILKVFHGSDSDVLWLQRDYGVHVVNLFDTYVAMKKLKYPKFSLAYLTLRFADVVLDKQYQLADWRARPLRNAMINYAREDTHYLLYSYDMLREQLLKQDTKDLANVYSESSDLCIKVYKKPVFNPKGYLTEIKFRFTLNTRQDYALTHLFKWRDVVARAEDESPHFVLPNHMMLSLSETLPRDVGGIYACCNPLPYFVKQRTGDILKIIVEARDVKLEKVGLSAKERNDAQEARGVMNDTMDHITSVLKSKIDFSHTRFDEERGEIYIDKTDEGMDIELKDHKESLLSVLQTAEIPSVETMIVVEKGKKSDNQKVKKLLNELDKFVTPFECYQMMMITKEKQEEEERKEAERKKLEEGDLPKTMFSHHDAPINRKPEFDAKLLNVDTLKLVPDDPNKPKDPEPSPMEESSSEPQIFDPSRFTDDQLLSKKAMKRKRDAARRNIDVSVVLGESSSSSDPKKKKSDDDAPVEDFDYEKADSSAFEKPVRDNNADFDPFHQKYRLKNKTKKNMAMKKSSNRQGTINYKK

T2: GST-NUC-1 (C. elegans, UniProt Q17778 22-375)
T2 construct: also called NUC-1 GST-fusion protein; not shown: glutathione S-transferase tag encoded by vector pGEX4T-2
T2 sequence (looked up): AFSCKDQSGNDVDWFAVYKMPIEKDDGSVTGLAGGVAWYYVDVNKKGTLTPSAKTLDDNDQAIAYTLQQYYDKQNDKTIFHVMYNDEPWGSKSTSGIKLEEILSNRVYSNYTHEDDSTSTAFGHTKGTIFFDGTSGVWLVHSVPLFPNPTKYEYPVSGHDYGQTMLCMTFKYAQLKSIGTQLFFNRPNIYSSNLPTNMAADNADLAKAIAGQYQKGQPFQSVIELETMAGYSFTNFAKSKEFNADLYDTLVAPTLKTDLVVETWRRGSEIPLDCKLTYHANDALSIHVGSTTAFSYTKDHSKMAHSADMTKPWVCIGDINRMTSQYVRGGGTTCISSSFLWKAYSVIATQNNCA

T3: ^35S-Methionine labeled CRN-3 (C. elegans, UniProt G5EBX6 1-876)
T3 sequence: T1 sequence

T4: ^35S-Methionine labeled NUC-1 (C. elegans, UniProt Q17778 22-375, 35S-methionine labelled)
T4 sequence (looked up): T2 sequence (looked up)

T5: ^35S-Methionine labeled CRN-6 (C. elegans, UniProt P34508-2 18-373, limits assumed, 35S-methionine labelled)
T5 sequence (looked up): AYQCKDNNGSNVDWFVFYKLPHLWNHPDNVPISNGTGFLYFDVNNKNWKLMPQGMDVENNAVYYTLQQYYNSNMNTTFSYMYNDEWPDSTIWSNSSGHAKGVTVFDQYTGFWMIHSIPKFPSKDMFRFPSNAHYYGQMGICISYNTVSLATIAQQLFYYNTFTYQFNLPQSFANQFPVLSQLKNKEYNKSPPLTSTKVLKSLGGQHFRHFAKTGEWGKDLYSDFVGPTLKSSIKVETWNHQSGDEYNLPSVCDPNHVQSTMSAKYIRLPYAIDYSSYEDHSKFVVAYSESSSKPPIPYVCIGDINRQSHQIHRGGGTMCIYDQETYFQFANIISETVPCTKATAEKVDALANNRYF

B1: full-length ^35S-methionine labeled CPS-6 (enzyme, C. elegans, UniProt Q95NM6 1-308, looked up)
chain: MIGKVAGTAAIAGISFLAGKYSNDDLPIFRNVQSATNVPMNQIQVSEPMTVKPASLNADAMGPSRSAEIMKHGYPGFTNVRTYEDFVLSYDYKTRTAHWVCEHLTPERLKHAEGVDRKLCEFKPDITFPQKFLSQNTDYKCSGFDRGHLAAAGNHRKSQLAVDQTFYLSNMSPQVGRGFNRDKWNDLEMHCRRVAKKMINSYIITGPLYLPKLEGDGKKYIKYQVIGDNNVAVPTHFFKVALFEVTPGKFELESYILPNAVIEDTVEISKFHVPLDAVERSAGLEIFARLDPKSIVKENGAKKGGLLW
modifications: 35S-methionine labelled
notes: also called ^35S-CPS-6
B2: GST-CPS-6 (other, C. elegans, UniProt Q95NM6 1-308, looked up)
chain: B1 chain
notes: GST at the N-terminus as in pGEX vectors; also called CPS-6 GST-fusion protein; not shown: glutathione S-transferase tag encoded by vector pGEX4T-2

Key:
Experiment in all cases: GST pull-down, 35S-Met protein vs GST fusion; - means no detectable binding (footnote a)
[1] = biological target: T6, GST-CRN-6 (C. elegans, UniProt P08515 1-218 = GST; P34508 1-373)
T6 construct: Two crn-6 cDNAs (700 bp and 1.1 kb) were isolated; the longer one made the GST fusion; also called CRN-6 GST-fusion protein
Protocol: (§1) GST fusion protein pull-down assays were performed as described in J. Parrish, H. Metters, L. Chen, D. Xue, Proc. Natl. Acad. Sci. U.S.A. 97, 11916 (2000). Purified GST or GST-fusion proteins (5 μg each) immobilized on glutathione sepharose beads were incubated with ³⁵S-Methionine labeled proteins at 4° C. for 2 hours. The beads were washed extensively and the bound proteins were resolved on a 12% SDS-PAGE and visualized by autoradiography. [0103] cDNAs corresponding to the ORFs were cloned into the pPD129.36 vector via its Nhe I and Xho I sites or the Xho I site alone. Full-length cDNAs were subcloned into the pGEX4T-2 vector for generating GST fusion proteins and for further protein purification and into the pcDNA3.1 vector for in vitro transcription/translation experiments.
(§2) ^aInteractions were evaluated relative to background binding of ³⁵S-Methionine labeled Luciferase to GST-fusion proteins and ³⁵S-Methionine labeled proteins to GST. “−” indicates no detectable binding, “+” indicates an interaction consistently observed above background levels, and “++” indicates a strong interaction. ^bBecause ³⁵S-Methionine labeled CRN-1 binds GST tightly, it was not possible to evaluate interactions between ³⁵S-CRN-1 and various GST-fusion proteins. ND, not determined.

[2] = biological target: T1, GST-CRN-3
Protocol: as §1, §2

[3] = biological target: B2
Protocol: as §1, §2

[4] = biological target: T2, GST-NUC-1
Protocol: as §1, §2

[5] = biological target: T3, ^35S-Methionine labeled CRN-3
Protocol: as §1, §2

[6] = biological target: T4, ^35S-Methionine labeled NUC-1
Protocol: as §1, §2

[7] = biological target: T5, ^35S-Methionine labeled CRN-6
Protocol: as §1, §2

Measured: binding result

B1
no binding: [1] | [2] | [3] | [4]

B2
no binding: [5] | [6] | [7]
